{"source": "paper doi:10.1101/2025.01.14.632876v1", "proteins": {"B1": {"name": "HvG6PDH (Haloferax volcanii DS2) (protein)", "chain": "MDQPVLLTGAGGRVGQAILGHIGDAYDWRLLDREPLSDEKIPDSVDSTEVYVADVTDETAVRNAMDGVHAVIHLAGDPRPEAPWDSVLRNNIDGTQQMFDAAVDVGVEKFAFASSNHAVGAYETTDRTPDMYRPHHEFRLDGTELPRPSNLYGVSKAAGETLGRYYHDHHDISVVNVRIGNLTQHHPPKEYERGQAMWLSYRDCGHLFECCIEADYDYEIVYGISDNDRKYYSIDRARAVLGYDPQDNSAEFTFEGEPLDEA"}}, "substrate": "NC(=O)c1ccc[n+]([C@@H]2O[C@H](COP(=O)(O)OP(=O)(O)OC[C@H]3O[C@@H](n4cnc5c(N)ncnc54)[C@H](O)[C@@H]3O)[C@@H](O)[C@H]2O)c1", "experiment": "purified protein", "details": "G6PDH activity, co-substrate G6P, 2 M KCl, 100 mM Tris-HCl pH 8.5", "data": [{"protein": "B1", "values": [{"measurement": "Km", "result": "198 ± 6", "unit": "µM"}, {"measurement": "kcat", "result": "42.5 ± 0.1", "unit": "s⁻¹"}]}]}
